Test results published in patent publication US20090318341A1.
Read-outs that look alike come from different tables or passages of the source. Ends that are not written are not given here.

Tests used:
Assay in all cases: cell-based or functional assay
[1] = target: human Kv1.3 voltage-gated potassium channel (human) (UniProt P22001)
[2] = target: human Kv1.3 channel (human) (UniProt P22001)
[3] = target: human Kv1.1 channel (human) (UniProt Q09470)
[4] = target: human Kv1.3 channel (human) (UniProt P22001); remark: listed apart in the source

human Kv1.3 voltage-gated potassium channel (human), sequence (P22001 whole entry): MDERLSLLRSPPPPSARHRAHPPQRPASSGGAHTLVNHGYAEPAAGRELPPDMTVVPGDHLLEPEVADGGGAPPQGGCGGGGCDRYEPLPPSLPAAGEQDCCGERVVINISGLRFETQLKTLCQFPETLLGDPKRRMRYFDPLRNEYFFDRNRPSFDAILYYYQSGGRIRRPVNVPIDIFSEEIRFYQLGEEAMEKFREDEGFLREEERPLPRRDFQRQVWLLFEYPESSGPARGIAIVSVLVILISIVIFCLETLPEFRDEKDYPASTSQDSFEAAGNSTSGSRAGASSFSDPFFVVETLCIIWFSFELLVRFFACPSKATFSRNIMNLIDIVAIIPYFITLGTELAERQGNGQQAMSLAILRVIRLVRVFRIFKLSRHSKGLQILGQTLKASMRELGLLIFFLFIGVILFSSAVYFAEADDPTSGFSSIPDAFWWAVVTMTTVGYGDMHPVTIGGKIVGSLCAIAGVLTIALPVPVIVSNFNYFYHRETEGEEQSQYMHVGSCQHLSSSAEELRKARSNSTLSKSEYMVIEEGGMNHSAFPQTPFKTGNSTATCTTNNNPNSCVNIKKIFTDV
human Kv1.3 channel (human), sequence (P22001 whole entry): as above
human Kv1.1 channel (human), sequence (Q09470 whole entry): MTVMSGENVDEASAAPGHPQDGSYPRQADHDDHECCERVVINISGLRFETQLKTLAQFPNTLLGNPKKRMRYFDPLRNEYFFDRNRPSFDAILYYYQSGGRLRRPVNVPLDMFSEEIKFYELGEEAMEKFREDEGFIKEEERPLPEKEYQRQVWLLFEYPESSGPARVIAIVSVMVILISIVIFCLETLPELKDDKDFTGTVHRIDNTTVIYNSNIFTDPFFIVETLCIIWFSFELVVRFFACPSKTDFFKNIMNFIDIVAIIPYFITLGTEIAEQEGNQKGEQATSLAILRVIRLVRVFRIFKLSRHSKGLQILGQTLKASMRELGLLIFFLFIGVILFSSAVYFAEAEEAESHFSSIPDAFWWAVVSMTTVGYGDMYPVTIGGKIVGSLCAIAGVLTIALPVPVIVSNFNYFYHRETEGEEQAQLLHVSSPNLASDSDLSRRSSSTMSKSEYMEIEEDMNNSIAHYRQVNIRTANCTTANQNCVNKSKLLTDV

| Molecule | WB/IFNg (IC50, nM), human whole blood assay [1] | WB/IL-2 (IC50, nM), human whole blood assay [1] | IC50 of block of the outward potassium current, whole cell patch clamp [2] | other results |
| --- | --- | --- | --- | --- |
| 20k PEG-OSK1[Ala29, 1Nal34] (peptide) | 0.081 nM | 0.049 nM | – | – |
| 20k PEG-ShK (peptide) | 0.065 nM | 0.046 nM | – | – |
| Fc-L5-ShK[2-35] (Fc fusion) | – | – | 0.1 nM | – |
| Fc-L10-ShK[2-35] (CHO-derived) (Fc fusion) | – | – | 0.115 nM | – |
| GGGGS-Osk1 (peptide) | 2.2 nM | 1.36 nM | – | – |
| OSK1 (native Orthochirus scrobiculosus toxin peptide) | – | – | – | Kv1.3 Selectivity (=Kv1.1/Kv.3 IC50) [1]: 5 fold |
| OSK1 analogue E16K, K20D (peptide) | 1.32 nM | 1.58 nM | – | – |
| Synthetic OSK1 (peptide) | – | – | – | hKv1.1: IC50 [pM], block of K+ current, whole cell patch clamp [3]: 160 pM; hKv1.3: IC50 [pM], block of K+ current, whole cell patch clamp [2]: 39 pM; selectivity ratio hKv1.1/hKv1.3 (IC50 on hKv1.1 over IC50 on hKv1.3) [2]: 4 fold |
| synthetic OSK1 toxin peptide | – | – | 0.039 nM | – |
| SCIDTIPKSRCTAFQCKHSMKYRLSFCRKTCGTC (not fully specified; ends and bridges not checked) [ShK[2-35] synthetic peptide analog] | – | – | – | IC50 of block of the outward potassium current, whole cell patch clamp [4]: 0.049 nM |
